# Measured values published in patent US10407638B2, “Production of alpha-olefins” (TOTAL RAFFINAGE CHIMIE, priority 2015, dated 2019).
# B1: Sm46: olefin-producing enzyme from Staphilococcus massiliensis, SEQ ID NO:8 (protein, listed as Staphylococcus massiliensis)
# chain: MFVDSILVLRLNLLKTGIQLEMKNGGIKVAKKLPKVKGLDNTVDIIKGGYTYVPGKLEEFDSKAFEVRALGGKKIAVMSGKEAAEIFYDNEKMERQGTLPKRIVNTLFGKGAIHTTAGKKHVDRKALFMSLMTDENLNYLRELTRNYWFMNTERMQSMDKVNVYNESIYMLTKIGFRWAGIIQTPEEAEQNAKDMDTMINSFVSLGSAYKGYKKAKKARKRVEDFLEKQIIDVRKGKLHPEEGTALYEFAHWEDLNDNPMDSHLCAVDLMNVVRPLAAINRFISYGVKVLIEFDQEKEKLRLENNEDYAYKFAQEVRRIFPFVPYLPGRAAVDLEYDGYKIPAGMMTALDVYGTTHDEDLWENPDQFNPNRFDNWDGSPFDLIPQGGGDFYTNHRCAGEWITVIIMEETMKYFANKIEFDVPSQDLSVKLDKLPGNVTSGTIISNVRPRVARK
# B2: Aa162: decarboxylase (olefin-producing enzyme) from Alicyclobacillus acidocaldarius, SEQ ID NO:6 (protein, listed as Alicyclobacillus acidocaldarius)
# chain: MNQCIPRDRTFDSSLALIKEGYLFIKNRVDQYQSDIFEARLLLENVVCMHGAEAAKLFYNTELFQRQGALPKRVQKTLFGENAIQTLDGTAHLHRKQLFLSLLTPDQEKSLATLATTQWRECAKVWENADRVVLFEEAKRMLCRIACQWTGVPLDESEVSKRADDFGAMVDAFGAVGPRHWKGRRARARAEAWLRQMIDEIRIGLRSVDEHTPLHVVAFWRDVNGNLLDAQMVAIELINLLRPIVAISTFITFSALALHEHPTWRDRLKARNEADIEMFVQEVRRYYPFAPFLGARVKKDFVWRGYEFKRGTLVLLDVYGTHHDARLWDSPNEFRPERFMRKTVGPFDLIPQGGGDSHTGHRCPGEGATIEIMKASVDFLVNQIDFEVPAQDLSYRLDVMPTLPKSGFVLTHVHRKFIASPTIATPNGSEALPSEV
# B3: Sm46-del29: truncated variant of Sm46 with the N-terminal 29 amino acids deleted, SEQ ID NO:13 (protein)
# chain: AKKLPKVKGLDNTVDIIKGGYTYVPGKLEEFDSKAFEVRALGGKKIAVMSGKEAAEIFYDNEKMERQGTLPKRIVNTLFGKGAIHTTAGKKHVDRKALFMSLMTDENLNYLRELTRNYWFMNTERMQSMDKVNVYNESIYMLTKIGFRWAGIIQTPEEAEQNAKDMDTMINSFVSLGSAYKGYKKAKKARKRVEDFLEKQIIDVRKGKLHPEEGTALYEFAHWEDLNDNPMDSHLCAVDLMNVVRPLAAINRFISYGVKVLIEFDQEKEKLRLENNEDYAYKFAQEVRRIFPFVPYLPGRAAVDLEYDGYKIPAGMMTALDVYGTTHDEDLWENPDQFNPNRFDNWDGSPFDLIPQGGGDFYTNHRCAGEWITVIIMEETMKYFANKIEFDVPSQDLSVKLDKLPGNVTSGTIISNVRPRVARK
# modifications: Sm46-del29
# B4: Bs168: P450BSβ fatty acid hydroxylase from Bacillus subtilis subsp. subtilis str. 168, SEQ ID NO:4 (protein, listed as Bacillus subtilis)
# chain: MNEQIPHDKSLDNSLTLLKEGYLFIKNRTERYNSDLFQARLLGKNFICMTGAEAAKVFYDTDRFQRQNALPKRVQKSLFGVNAIQGMDGSAHIHRKMLFLSLMTPPHQKRLAELMTEEWKAAVTRWEKADEVVLFEEAKEILCRVACYWAGVPLKETEVKERADDFIDMVDAFGAVGPRHWKGRRARPRAEEWIEVMIEDARAGLLKTTSGTALHEMAFHTQEDGSQLDSRMAAIELINVLRPIVAISYFLVFSALALHEHPKYKEWLRSGNSREREMFVQEVRRYYPFGPFLGALVKKDFVWNNCEFKKGTSVLLDLYGTNHDPRLWDHPDEFRPERFAEREENLFDMIPQGGGHAEKGHRCPGEGITIEVMKASLDFLVHQIEYDVPEQSLHYSLARMPSLPESGFVMSGIRRKS
# B5: OleTJE: P450 decarboxylase from Jeotgalicoccus sp. ATCC 8456, decarboxylates C12 to C20 free fatty acids to α-olefins (protein, listed as Jeotgalicoccus sp.)
# chain: MATLKRDKGLDNTLKVLKQGYLYTTNQRNRLNTSVFQTKALGGKPFVVVTGKEGAEMFYNNDVVQREGMLPKRIVNTLFGKGAIHTVDGKKHVDRKALFMSLMTEGNLNYVRELTRTLWHANTQRMESMDEVNIYRESIVLLTKVGTRWAGVQAPPEDIERIATDMDIMIDSFRALGGAFKGYKASKEARRRVEDWLEEQIIETRKGNIHPPEGTALYEFAHWEDYLGNPMDSRTCAIDLMNTFRPLIAINRFVSFGLHAMNENPITREKIKSEPDYAYKFAQEVRRYYPFVPFLPGKAKVDIDFQGVTIPAGVGLALDVYGTTHDESLWDDPNEFRPERFETWDGSPFDLIPQGGGDYWTNHRCAGEWITVIIMEETMKYFAEKITYDVPEQDLEVDLNSIPGYVKSGFVIKNVREVVDRT
# What was measured:
# Format in all cases: biochemical
# [1] = In vitro olefin biosynthesis assay with supernatant of E. coli lysates expressing the enzyme, GC/MS; conditions: for fatty acid decarboxylase activity (α-olefin production): C12, C14 or C16 fatty acid substrate (1 mM), H2O2 500 μM
# Procedure: FIG. 4: In vitro production of α-olefins by OleTJE, Bs168, Aa162 and Sm46. Genes encoding OleTJ, Bs168, Aa162 and Sm46 were recombinantly expressed in E. coli. The supernatant of the E. coli lysates was used in an in vitro assay for α-olefin biosynthesis in the presence of C12, C14 or C16 fatty acid substrate (1 mM) and H2O2 (500 μM). C11, C13 and C15 α-olefin production by the different enzymes is indicated as the area under the gas chromatographic (GC) peak.
# E. coli BL21(DE3) cells (Novagen) carrying a recombinant plasmid or an empty PET28a plasmid (control) were cultured for several cycles to ensure best growth state at 37° C. in 10 mL LB medium supplemented with 50 μg/ml of kanamycin, followed by inoculation (1:100 ratio) into 50 mL fresh Terrific Broth medium containing 50 μg/ml of kanamycin, 1 mM thiamine, 10% glycerol and a rare salt solution (6750 mg/l FeCl3, 500 mg/l ZnCl2, 500 mg/l CoCl2, 500 mg/l Na2MoO4, 250 mg/l CaCl2, 465 mg/l CuSO4, and 125 mg/l H31303) at 37° C. Cells were grown at 37° C. for 3 to 4 h until the optical density at 600 nm (OD600) reached 0.6 to 0.8, at which 0.2 or 0.4 mM isopropyl-β-D-thiogalactopyranoside (IPTG) and 0.5 mM 5-aminolevulinic acid were added, followed by 18 h of cultivation at 16° C.
# Then, the cell cultures were recovered by centrifugation (at 4° C.) and re-suspended in 1.5 mL 50 mM Tris buffer, pH 7.5, containing 0.1 M NaCl. The re-suspended cell cultures were disrupted by sonication and centrifuged at 13,000×g for 30 min (4° C.). The supernatant was collected and the pellet was re-suspended in 1.5 mL 50 mM Tris buffer, pH 7.5, containing 0.1 M NaCl for further analysis. An SDS gel was run to check the expression of the genes using 15 μL of supernatant or pellet solution mixed with 5 μL of 4× loading buffer (FIG. 3).
# In vitro olefin biosynthesis was evaluated by adding to the supernatant a fatty acid substrate in DMSO to a final concentration of 0.2 mM (1:100 dilution) or 1 mM (1:10 dilution), and 500 μM H2O2. The reaction mixture was incubated at 28° C. for 2-3 h, or stopped using 50 μL of 10 M HCl at t=0, 15, 30, 60 and 120 min for a dynamic test. Then, C16 fatty acid was added at a final concentration of 0.2 mM (1:100 dilution) as an internal standard. 300 μL reaction mixture of each reaction condition was extracted with equal volume of ethyl acetate, and the organic phase was analyzed for hydrocarbons by gas chromatography/mass spectrometry (GC/MS). In the meanwhile, undecene of different concentrations (0, 0.05 mM, 0.1 mM, 0.2 mM and 0.5 mM) were tested to produce a standard curve.
# [2] = Fatty acid decarboxylation assay with purified Sm46-del29, GC
# Procedure: FIG. 6: In vitro conversion of free fatty acids into α-olefins by a truncated variant of Sm46: Sm46-del29. Conversion percentages of the free fatty acid substrates (A) and the corresponding α-alkene products (B) are shown.
# The fatty acid decarboxylation assays containing 1.0 μM Sm46-del29, 200 μM fatty acid substrate (from C8 to C20), 220 μM H2O2 in 200 μl of storage buffer were carried out at 28° C. for 2 h. Reactions were quenched by the addition of 20 μl of 10 M HCl. Heptadecanoic acid was added as internal standard and the mixture was extracted by 200 μl ethyl acetate. Following extraction, the organic phase was collected and analyzed by gas chromatography as described below.
# The GC analytical method for hydrocarbon and fatty acid samples was adapted from Guan et al. (2011 J Chromatogr A 1218:8289-8293). The analyses were performed on an Agilent 7890B gas chromatograph equipped with a capillary column HP-INNOWAX (Agilent Technologies, Santa Clara, Calif., USA; cross-linked polyethylene glycerol, i.d. 0.25 μm film thickness, 30 m by 0.25 mm). The helium flow rate was set to 1 ml per minute. The oven temperature was controlled initially at 40° C. for 4 min, then increased at the rate of 10° C. per min to 250° C., and held for 5 min. The injecting temperature was set to 280° C. with the injection volume of 1 μl under splitless injection conditions. The response factors between fatty acids and alkenes were determined by analyzing known authentic fatty acids (C10-C20), 1-alkenes (C9-C19) and 1-heptadecanoic acid standards as described in Liu et al. (2014 Biotechnol. Biofuels 7:28).
# [3] = Reaction of purified enzymes with C14 fatty acid, analysis of decarboxylation and hydroxylation products; conditions: compared with Bs168 and Aa162; FIG. 7
# Procedure: FIG. 7: In vitro production of α-olefins by Aa162, Bs168 and Sm46-del29. Recombinantly expressed and purified enzyme (0.2 μM) was used in an in vitro assay for α-olefin biosynthesis in the presence of C14 fatty acid substrate. The conversion percentages are shown for, from left to right, C14 free fatty acid substrate, C13 α-olefin, α-hydroxy C14 fatty acid, β-hydroxy C14 fatty acid.
# Recombinantly expressed and purified Bs168 and Aa162 from Example 1 and Sm46-del29 of Example 2 were reacted with C14 fatty acid and the products of decarboxylation (C13 α-olefin) and hydroxylation (α-OH—O14 fatty acid and β-OH—C14 fatty acid) reactions were analyzed.
# [4] = C12, C14 or C16 fatty acid substrate, FIG. 4
Molecule,fatty acid decarboxylase activity (α-olefin production) ([1]; FIG. 4),"substrate preference [1, 4]",other results
B1,fatty acid decarboxylase activity,–,"substrate preference ([1]; later experiments, data not shown): substrate preference for C12 fatty acid substrate"
B2,fatty acid decarboxylase activity,preference for C12 fatty acid substrate,–
B3,–,–,"decarboxylase activity ([2]; 1.0 μM enzyme, 200 μM fatty acid, 220 μM H2O2, 28° C., 2 h, FIG. 6): had decarboxylase activity; decarboxylation of C10 free fatty acid ([2]; C9 α-olefin not detected due to volatility): able to decarboxylate C10 free fatty acid; substrate preference for α-olefin production ([2]; among tested fatty acid substrates C8 to C20, FIG. 6): substrate preference for C12 free fatty acid; formation of hydroxy fatty acids [3]: formed less hydroxy fatty acids"
B4,fatty acid decarboxylase activity,preference for C12 fatty acid substrate,–
B5,fatty acid decarboxylase activity,–,–
